Experiments:
[1] = K562 cell clustering, co-clustering ratio; conditions: glycan changed form; control: untreated contactin 1 and neurofascin 155 K562 cells
[2] = molecular target: the molecule itself; experiment: AUC; sedimentation velocity, c(s) distribution; low concentration (9 µM contactin 1^Ig1–6, 5 µM contactin 1^fe), 12 mm centerpieces; 25 mM HEPES pH 7.5, 150 mM NaCl, 20 °C; abundances relative to normalized monomer abundance
[3] = molecular target: the molecule itself; experiment: native MS; 2.5 µM protein in 150 mM ammonium acetate pH 7.5; static nano-electrospray, LCT time-of-flight
[4] = molecular target: the molecule itself; experiment: AUC; sedimentation velocity, c(s) distribution; higher concentration (36 µM contactin 1^Ig1–6, 22 µM contactin 1^fe), 3 mm centerpieces; 25 mM HEPES pH 7.5, 150 mM NaCl, 20 °C; abundances relative to normalized monomer abundance

B1: contactin 1: kifunensine on contactin 1 cells (protein)
parent chain: MKMPLLVSHLLLISLTSCLGDFTWHRRYGHGVSEEDKGFGPIFEEQPINTIYPEESLEGKVSLNCRARASPFPVYKWRMNNGDVDLTNDRYSMVGGNLVINNPDKQKDAGVYYCLASNNYGMVRSTEATLSFGYLDPFPPEERPEVKVKEGKGMVLLCDPPYHFPDDLSYRWLLNEFPVFITMDKRRFVSQTNGNLYIANVESSDRGNYSCFVSSPSITKSVFSKFIPLIPIPERTTKPYPADIVVQFKDIYTMMGQNVTLECFALGNPVPDIRWRKVLEPMPSTAEISTSGAVLKIFNIQLEDEGLYECEAENIRGKDKHQARIYVQAFPEWVEHINDTEVDIGSDLYWPCIATGKPIPTIRWLKNGYSYHKGELRLYDVTFENAGMYQCIAENAYGSIYANAELKILALAPTFEMNPMKKKILAAKGGRVIIECKPKAAPKPKFSWSKGTEWLVNSSRILIWEDGSLEINNITRNDGGIYTCFAENNRGKANSTGTLVITNPTRIILAPINADITVGENATMQCAASFDPALDLTFVWSFNGYVIDFNKEITHIHYQRNFMLDANGELLIRNAQLKHAGRYTCTAQTIVDNSSASADLVVRGPPGPPGGLRIEDIRATSVALTWSRGSDNHSPISKYTIQTKTILSDDWKDAKTDPPIIEGNMESAKAVDLIPWMEYEFRVVATNTLGTGEPSIPSNRIKTDGAAPNVAPSDVGGGGGTNRELTITWAPLSREYHYGNNFGYIVAFKPFDGEEWKKVTVTNPDTGRYVHKDETMTPSTAFQVKVKAFNNKGDGPYSLVAVINSAQDAPSEAPTEVGVKVLSSSEISVHWKHVLEKIVESYQIRYWAGHDKEAAAHRVQVTSQEYSARLENLLPDTQYFIEVGACNSAGCGPSSDVIETFTRKAPPSQPPRIISSVRSGSRYIITWDHVVALSNESTVTGYKILYRPDGQHDGKLFSTHKHSIEVPIPRDGEYVVEVRAHSDGGDGVVSQVKISGVSTLSSSLLSLLLPSLGFLVYSEF
other: heterophilic cell co-clustering [1]: increases

B2: contactin 1^fe (full ectodomain, residues 21–996), complex glycans (domain or fragment, mouse, UniProt P12960 21-996, looked up)
chain: DFTWHRRYGHGVSEEDKGFGPIFEEQPINTIYPEESLEGKVSLNCRARASPFPVYKWRMNNGDVDLTNDRYSMVGGNLVINNPDKQKDAGVYYCLASNNYGMVRSTEATLSFGYLDPFPPEERPEVKVKEGKGMVLLCDPPYHFPDDLSYRWLLNEFPVFITMDKRRFVSQTNGNLYIANVESSDRGNYSCFVSSPSITKSVFSKFIPLIPIPERTTKPYPADIVVQFKDIYTMMGQNVTLECFALGNPVPDIRWRKVLEPMPSTAEISTSGAVLKIFNIQLEDEGLYECEAENIRGKDKHQARIYVQAFPEWVEHINDTEVDIGSDLYWPCIATGKPIPTIRWLKNGYSYHKGELRLYDVTFENAGMYQCIAENAYGSIYANAELKILALAPTFEMNPMKKKILAAKGGRVIIECKPKAAPKPKFSWSKGTEWLVNSSRILIWEDGSLEINNITRNDGGIYTCFAENNRGKANSTGTLVITNPTRIILAPINADITVGENATMQCAASFDPALDLTFVWSFNGYVIDFNKEITHIHYQRNFMLDANGELLIRNAQLKHAGRYTCTAQTIVDNSSASADLVVRGPPGPPGGLRIEDIRATSVALTWSRGSDNHSPISKYTIQTKTILSDDWKDAKTDPPIIEGNMESAKAVDLIPWMEYEFRVVATNTLGTGEPSIPSNRIKTDGAAPNVAPSDVGGGGGTNRELTITWAPLSREYHYGNNFGYIVAFKPFDGEEWKKVTVTNPDTGRYVHKDETMTPSTAFQVKVKAFNNKGDGPYSLVAVINSAQDAPSEAPTEVGVKVLSSSEISVHWKHVLEKIVESYQIRYWAGHDKEAAAHRVQVTSQEYSARLENLLPDTQYFIEVGACNSAGCGPSSDVIETFTRKAPPSQPPRIISSVRSGSRYIITWDHVVALSNESTVTGYKILYRPDGQHDGKLFSTHKHSIEVPIPRDGEYVVEVRAHSDGGDGVVSQVKISG
modifications: N-linked complex glycans
notes: contactin 1, mouse, full ectodomain, residues 21–996; template Image Clone 30099512; Same chain as m7, other host and glycan type; also called contactin 1^fe CG; source: HEK293-E (EBNA1-expressing HEK293), secreted, purified (Ni Sepharose excel, SEC)
Dimer abundance (%) [2]: 9.9%
Trace amounts higher order species [2]: 4.6%
Trimer abundance (%) [2]: 3.4%
stoichiometry N [3]: 2
Dimer abundance (%) [4]: 9.8%
Trimer abundance (%) [4]: 4%

B3: contactin 1^fe (full ectodomain, residues 21–996), high mannose glycans (domain or fragment, mouse, UniProt P12960 21-996, looked up)
chain: DFTWHRRYGHGVSEEDKGFGPIFEEQPINTIYPEESLEGKVSLNCRARASPFPVYKWRMNNGDVDLTNDRYSMVGGNLVINNPDKQKDAGVYYCLASNNYGMVRSTEATLSFGYLDPFPPEERPEVKVKEGKGMVLLCDPPYHFPDDLSYRWLLNEFPVFITMDKRRFVSQTNGNLYIANVESSDRGNYSCFVSSPSITKSVFSKFIPLIPIPERTTKPYPADIVVQFKDIYTMMGQNVTLECFALGNPVPDIRWRKVLEPMPSTAEISTSGAVLKIFNIQLEDEGLYECEAENIRGKDKHQARIYVQAFPEWVEHINDTEVDIGSDLYWPCIATGKPIPTIRWLKNGYSYHKGELRLYDVTFENAGMYQCIAENAYGSIYANAELKILALAPTFEMNPMKKKILAAKGGRVIIECKPKAAPKPKFSWSKGTEWLVNSSRILIWEDGSLEINNITRNDGGIYTCFAENNRGKANSTGTLVITNPTRIILAPINADITVGENATMQCAASFDPALDLTFVWSFNGYVIDFNKEITHIHYQRNFMLDANGELLIRNAQLKHAGRYTCTAQTIVDNSSASADLVVRGPPGPPGGLRIEDIRATSVALTWSRGSDNHSPISKYTIQTKTILSDDWKDAKTDPPIIEGNMESAKAVDLIPWMEYEFRVVATNTLGTGEPSIPSNRIKTDGAAPNVAPSDVGGGGGTNRELTITWAPLSREYHYGNNFGYIVAFKPFDGEEWKKVTVTNPDTGRYVHKDETMTPSTAFQVKVKAFNNKGDGPYSLVAVINSAQDAPSEAPTEVGVKVLSSSEISVHWKHVLEKIVESYQIRYWAGHDKEAAAHRVQVTSQEYSARLENLLPDTQYFIEVGACNSAGCGPSSDVIETFTRKAPPSQPPRIISSVRSGSRYIITWDHVVALSNESTVTGYKILYRPDGQHDGKLFSTHKHSIEVPIPRDGEYVVEVRAHSDGGDGVVSQVKISG
modifications: N-linked high mannose glycans
notes: contactin 1, mouse, full ectodomain, residues 21–996; template Image Clone 30099512; Vector pUPE107.03 supplies a cystatin secretion signal peptide; also called contactin 1^fe HM; source: HEK293-ES (GnTI−, EBNA1-expressing HEK293), secreted, purified (Ni Sepharose excel, SEC)
Dimer abundance (%) [2]: 11.7%
Trimer abundance (%) [2]: 1.8%
stoichiometry N [3]: 2
Dimer abundance (%) [4]: 2.9%
Trimer abundance (%) [4]: 0.3%

B4: contactin 1^fe Leu279Arg, high mannose glycans (domain or fragment, mouse, UniProt P12960 21-996, looked up)
chain: DFTWHRRYGHGVSEEDKGFGPIFEEQPINTIYPEESLEGKVSLNCRARASPFPVYKWRMNNGDVDLTNDRYSMVGGNLVINNPDKQKDAGVYYCLASNNYGMVRSTEATLSFGYLDPFPPEERPEVKVKEGKGMVLLCDPPYHFPDDLSYRWLLNEFPVFITMDKRRFVSQTNGNLYIANVESSDRGNYSCFVSSPSITKSVFSKFIPLIPIPERTTKPYPADIVVQFKDIYTMMGQNVTLECFALGNPVPDIRWRKVREPMPSTAEISTSGAVLKIFNIQLEDEGLYECEAENIRGKDKHQARIYVQAFPEWVEHINDTEVDIGSDLYWPCIATGKPIPTIRWLKNGYSYHKGELRLYDVTFENAGMYQCIAENAYGSIYANAELKILALAPTFEMNPMKKKILAAKGGRVIIECKPKAAPKPKFSWSKGTEWLVNSSRILIWEDGSLEINNITRNDGGIYTCFAENNRGKANSTGTLVITNPTRIILAPINADITVGENATMQCAASFDPALDLTFVWSFNGYVIDFNKEITHIHYQRNFMLDANGELLIRNAQLKHAGRYTCTAQTIVDNSSASADLVVRGPPGPPGGLRIEDIRATSVALTWSRGSDNHSPISKYTIQTKTILSDDWKDAKTDPPIIEGNMESAKAVDLIPWMEYEFRVVATNTLGTGEPSIPSNRIKTDGAAPNVAPSDVGGGGGTNRELTITWAPLSREYHYGNNFGYIVAFKPFDGEEWKKVTVTNPDTGRYVHKDETMTPSTAFQVKVKAFNNKGDGPYSLVAVINSAQDAPSEAPTEVGVKVLSSSEISVHWKHVLEKIVESYQIRYWAGHDKEAAAHRVQVTSQEYSARLENLLPDTQYFIEVGACNSAGCGPSSDVIETFTRKAPPSQPPRIISSVRSGSRYIITWDHVVALSNESTVTGYKILYRPDGQHDGKLFSTHKHSIEVPIPRDGEYVVEVRAHSDGGDGVVSQVKISG
modifications: N-linked high mannose glycans
notes: contactin 1, mouse, full ectodomain, residues 21–996, Leu279Arg; template Image Clone 30099512; also called Leu279Arg contactin 1^fe; Contactin 1^fe Leu279Arg HM
Dimer abundance (%) [2]: 7.3%
Trace amounts higher order species [2]: 1.4%
Trimer abundance (%) [2]: 8.7%
stoichiometry N [3]: ≤ 6
Dimer abundance (%) [4]: 5.7%
Trimer abundance (%) [4]: 6.7%

B5: contactin 1^Ig1–6 (residues 21–604), high mannose glycans (domain or fragment, mouse, UniProt P12960 21-604, looked up)
chain: DFTWHRRYGHGVSEEDKGFGPIFEEQPINTIYPEESLEGKVSLNCRARASPFPVYKWRMNNGDVDLTNDRYSMVGGNLVINNPDKQKDAGVYYCLASNNYGMVRSTEATLSFGYLDPFPPEERPEVKVKEGKGMVLLCDPPYHFPDDLSYRWLLNEFPVFITMDKRRFVSQTNGNLYIANVESSDRGNYSCFVSSPSITKSVFSKFIPLIPIPERTTKPYPADIVVQFKDIYTMMGQNVTLECFALGNPVPDIRWRKVLEPMPSTAEISTSGAVLKIFNIQLEDEGLYECEAENIRGKDKHQARIYVQAFPEWVEHINDTEVDIGSDLYWPCIATGKPIPTIRWLKNGYSYHKGELRLYDVTFENAGMYQCIAENAYGSIYANAELKILALAPTFEMNPMKKKILAAKGGRVIIECKPKAAPKPKFSWSKGTEWLVNSSRILIWEDGSLEINNITRNDGGIYTCFAENNRGKANSTGTLVITNPTRIILAPINADITVGENATMQCAASFDPALDLTFVWSFNGYVIDFNKEITHIHYQRNFMLDANGELLIRNAQLKHAGRYTCTAQTIVDNSSASADLVVRG
modifications: N-linked high mannose glycans (glycans at Asn208, Asn258 and Asn521 are named)
notes: contactin 1, mouse, domains Ig1 to Ig6, residues 21–604; template Image Clone 30099512; Vector pUPE107.03 supplies a cystatin secretion signal peptide; also called CNTN1^Ig1–6; contactin 1^Ig1–6 HM; source: HEK293-ES (GnTI−, EBNA1-expressing HEK293), secreted, purified (Ni Sepharose excel, SEC)
Dimer abundance (%) [2]: 2.4%
Trace amounts higher order species [2]: 0.6%
Trimer abundance (%) [2]: 0.8%
Dimer abundance (%) [4]: 0.1%

From publication PMC9633819 (Nature Communications, 2022)
